The text below walks through data of patent publication US20110142849A1 (IRM, published 2011).

In general, Kd refers to the concentration at which binding is half-saturated.

Experiment [1] addresses T1, recombinant human Pcsk9 (aa 31-692) with C-terminal his6 tag (human, UniProt Q8NBP7 31-692).
T1 construct: In the TR-FRET assay it carried a fluorophore (hPcsk9-AF); also called hPCSK9; hPcsk9
Description: Solution Equilibrium Titration (SET), MSD read-out. As for the experimental part: The binding kinetics of IgGs and Fab fragments were analyzed using a Solution Equilibrium Titration (“SET”) assay. Briefly, serial dilutions of hPCSK9 were added to 60 pM IgG or Fab and incubated overnight. A 96-well Standard Bind microtiter plate (Meso Scale Discovery) was coated with 1 μg/ml hPCSK9 and incubated overnight, washed with PBS/0.05% (w/v) Tween 20, blocked with PBS/5% (w/v) BSA, and washed again. The antibody-antigen preparation was added to the PCSK9-coated Standard Bind plate and incubated for 30 min at room temperature. After three additional washing steps, Sulfo-Tag-labeled goat-anti-human-detection antibody (R32AJ-5, Meso Scale Discovery) was added and incubated one hour at room temperature. After washing the plate three times, Read Buffer (Meso Scale Discovery) was added and electrochemiluminescence (ECL) signals were measured by a Sector Imager 6000 (Meso Scale Discovery). ECL data were processed with the excel add-in XLfit 4.3.2 (ID Business Solutions) using the fitting model applicable for antibodies described in Piehler, et al., (1997) J Immunol Methods 201:189-206.

Experiment [2] concerns the target T2, hGITR (human, UniProt Q9Y5U5).
T2 construct: panel antigen of the specificity ELISA
T2 sequence (antigen, looked up): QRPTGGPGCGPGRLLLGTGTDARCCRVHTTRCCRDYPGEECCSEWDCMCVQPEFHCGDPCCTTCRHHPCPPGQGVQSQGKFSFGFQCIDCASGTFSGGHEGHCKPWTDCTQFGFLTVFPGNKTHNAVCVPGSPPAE
In words: specificity ELISA on coated antigen (88 ng per well), antibody at 2 µg/mL, ABS650. The protocol: (§1) For specificity ELISAs on purified human and mouse IgGs, a 384-well plate was coated with a panel of purified human or mouse antigens at 88 ng per well and incubated overnight at 4° C. The plate was blocked and washed as described above, then 22 μL of purified mouse or human anti-PCSK9 antibody diluted to 2 μg/mL in PBS was added to each well. The plate was incubated for 1 hr at 37° C. then washed with PBST. Anti-mouse Fc antibody (Jackson ImmunoResearch Labs #115-035-071) or anti-human kappa antibody (Sigma #A7164) conjugated to HRP was diluted 1:5000 in PBS (25 μL) and added to each well. The plate was incubated for 1 hr at room temperature, then washed and developed as described above.
(§2) In order to test whether the antigen specificity of the parental mouse antibody LFU720 was retained in the final Humaneered™ IgGs, LGT209, LGT210 and LGT211, binding of the antibodies to a panel of human and mouse antigens (as well as human PCSK9) was tested in an ELISA assay.
(An ELISA detects its analyte on a solid surface through an enzyme-linked reagent.)

The target of experiment [3] is T3, hAgr2 (human, UniProt O95994).
T3 construct: panel antigen of the specificity ELISA
T3 sequence (antigen, looked up): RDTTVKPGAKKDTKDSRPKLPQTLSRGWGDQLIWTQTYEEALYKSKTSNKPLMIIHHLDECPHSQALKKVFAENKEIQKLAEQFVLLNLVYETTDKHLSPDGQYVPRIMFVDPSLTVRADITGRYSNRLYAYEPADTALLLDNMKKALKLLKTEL
The description is as above. The protocol:
as §1, §2

Experiment [4] concerns the target T4, hFGFR4 (human, UniProt P22455).
T4 construct: panel antigen of the specificity ELISA
T4 sequence (antigen, looked up): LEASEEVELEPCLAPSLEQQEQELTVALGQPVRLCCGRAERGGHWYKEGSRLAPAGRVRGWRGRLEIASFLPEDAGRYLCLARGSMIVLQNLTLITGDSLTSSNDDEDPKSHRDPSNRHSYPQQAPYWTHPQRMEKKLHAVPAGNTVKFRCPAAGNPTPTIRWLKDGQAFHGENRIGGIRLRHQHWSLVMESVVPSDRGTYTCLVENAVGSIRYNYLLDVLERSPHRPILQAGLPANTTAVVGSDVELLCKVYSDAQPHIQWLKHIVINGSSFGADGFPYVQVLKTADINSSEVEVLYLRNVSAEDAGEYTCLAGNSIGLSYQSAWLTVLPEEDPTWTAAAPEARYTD
The experiment is described as above. The protocol: as §1, §2

The target of experiment [5] is T5, hTrkB (human, UniProt Q16620).
T5 construct: panel antigen of the specificity ELISA
T5 sequence (Q16620 32-430 limits assumed): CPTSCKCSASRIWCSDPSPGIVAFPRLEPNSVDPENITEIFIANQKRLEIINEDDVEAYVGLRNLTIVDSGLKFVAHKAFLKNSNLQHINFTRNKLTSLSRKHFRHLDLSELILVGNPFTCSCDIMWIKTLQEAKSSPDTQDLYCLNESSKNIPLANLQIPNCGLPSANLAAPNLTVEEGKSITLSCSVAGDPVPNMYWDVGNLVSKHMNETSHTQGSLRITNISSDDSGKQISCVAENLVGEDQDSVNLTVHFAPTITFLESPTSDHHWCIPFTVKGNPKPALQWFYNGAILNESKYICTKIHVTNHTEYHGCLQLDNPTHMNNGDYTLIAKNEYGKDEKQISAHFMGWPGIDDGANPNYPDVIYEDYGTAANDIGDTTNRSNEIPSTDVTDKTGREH
Described as above. The protocol: as §1, §2

The target of experiment [6] is T6, hNotch-3 NRR (human, UniProt Q9UM47).
T6 construct: panel antigen of the specificity ELISA
T6 sequence (antigen, looked up): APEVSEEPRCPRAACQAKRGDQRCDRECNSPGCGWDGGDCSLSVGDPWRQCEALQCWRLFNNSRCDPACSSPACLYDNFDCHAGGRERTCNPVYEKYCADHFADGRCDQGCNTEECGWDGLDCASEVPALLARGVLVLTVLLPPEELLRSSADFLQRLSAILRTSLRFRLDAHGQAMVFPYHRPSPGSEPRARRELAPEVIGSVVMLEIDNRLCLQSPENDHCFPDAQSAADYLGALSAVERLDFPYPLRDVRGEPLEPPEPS
The experiment is described as above. The protocol: as §1, §2

The target in experiment [7] is T7, hIL-12RB1 (human, UniProt P42701).
T7 construct: panel antigen of the specificity ELISA
Described as above. As for the experimental part: as §1, §2

Experiment [8] addresses T8, hRspo-2 (human, UniProt Q6UXX9).
T8 construct: panel antigen of the specificity ELISA
The experiment is described as above. The protocol: as §1, §2

Experiment [9] addresses T9, hDDR1 (human, UniProt Q08345).
T9 construct: panel antigen of the specificity ELISA
The experiment is described as above. As for the experimental part:
as §1, §2

The target in experiment [10] is T10, hβ-Klotho (human, UniProt Q86Z14).
T10 construct: panel antigen of the specificity ELISA
T10 sequence (antigen, looked up): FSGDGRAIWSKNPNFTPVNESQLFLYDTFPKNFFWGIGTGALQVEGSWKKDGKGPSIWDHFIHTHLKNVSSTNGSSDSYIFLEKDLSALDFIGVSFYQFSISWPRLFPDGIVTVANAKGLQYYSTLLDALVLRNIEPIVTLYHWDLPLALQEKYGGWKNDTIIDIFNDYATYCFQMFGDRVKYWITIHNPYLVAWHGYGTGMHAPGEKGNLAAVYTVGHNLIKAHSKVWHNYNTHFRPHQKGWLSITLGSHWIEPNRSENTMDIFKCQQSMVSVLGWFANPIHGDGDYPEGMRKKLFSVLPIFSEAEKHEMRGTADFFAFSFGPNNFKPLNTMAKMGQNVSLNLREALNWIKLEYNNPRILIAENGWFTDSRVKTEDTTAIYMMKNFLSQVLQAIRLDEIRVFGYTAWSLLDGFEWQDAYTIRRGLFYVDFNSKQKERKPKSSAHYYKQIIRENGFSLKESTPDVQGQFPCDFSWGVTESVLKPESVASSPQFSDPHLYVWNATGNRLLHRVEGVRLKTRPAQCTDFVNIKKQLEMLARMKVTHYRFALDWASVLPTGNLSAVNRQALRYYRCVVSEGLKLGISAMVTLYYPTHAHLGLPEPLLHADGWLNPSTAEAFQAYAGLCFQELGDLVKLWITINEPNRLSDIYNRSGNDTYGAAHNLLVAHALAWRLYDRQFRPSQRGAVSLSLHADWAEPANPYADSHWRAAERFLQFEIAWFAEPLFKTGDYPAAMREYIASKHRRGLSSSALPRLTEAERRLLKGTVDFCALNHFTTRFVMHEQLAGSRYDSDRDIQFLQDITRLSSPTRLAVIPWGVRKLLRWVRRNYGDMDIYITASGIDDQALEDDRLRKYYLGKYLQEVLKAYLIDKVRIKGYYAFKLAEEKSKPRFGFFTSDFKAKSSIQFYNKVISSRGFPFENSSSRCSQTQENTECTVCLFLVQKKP
Described as above. The protocol: as §1, §2

Experiment [11] addresses T11, mouse Pcsk9 with C-terminal his6 tag (mouse, UniProt Q80W65 35-694, limits assumed).
T11 construct: also called murine PCSK9
Description: not told in the legend.

For experiment [12], the target named is T1, recombinant human Pcsk9 (aa 31-692) …. In words: ForteBio Octet, purified Fab.

Substitutions are numbered along the chain they refer to.

T1 sequence (Q8NBP7 other isoform, or with tags, fused parts or gaps limits assumed, form in doubt): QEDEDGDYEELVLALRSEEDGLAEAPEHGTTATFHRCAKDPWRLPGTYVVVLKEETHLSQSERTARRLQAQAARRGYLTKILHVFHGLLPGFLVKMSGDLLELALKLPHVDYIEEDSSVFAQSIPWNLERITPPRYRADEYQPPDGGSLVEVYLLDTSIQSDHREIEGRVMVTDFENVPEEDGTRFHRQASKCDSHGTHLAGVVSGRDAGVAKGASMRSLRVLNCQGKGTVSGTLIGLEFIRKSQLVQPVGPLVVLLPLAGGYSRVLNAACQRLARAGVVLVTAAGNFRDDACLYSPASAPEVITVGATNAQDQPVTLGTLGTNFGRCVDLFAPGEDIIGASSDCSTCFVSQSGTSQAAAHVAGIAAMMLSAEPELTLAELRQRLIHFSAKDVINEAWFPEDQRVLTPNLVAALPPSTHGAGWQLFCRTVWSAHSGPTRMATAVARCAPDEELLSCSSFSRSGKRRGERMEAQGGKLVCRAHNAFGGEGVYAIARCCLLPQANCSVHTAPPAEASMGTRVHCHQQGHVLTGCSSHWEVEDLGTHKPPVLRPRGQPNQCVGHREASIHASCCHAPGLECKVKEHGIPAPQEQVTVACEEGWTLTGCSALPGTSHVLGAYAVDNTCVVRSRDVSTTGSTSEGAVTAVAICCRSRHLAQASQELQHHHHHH
T9 sequence (Q08345 21-416 limits assumed): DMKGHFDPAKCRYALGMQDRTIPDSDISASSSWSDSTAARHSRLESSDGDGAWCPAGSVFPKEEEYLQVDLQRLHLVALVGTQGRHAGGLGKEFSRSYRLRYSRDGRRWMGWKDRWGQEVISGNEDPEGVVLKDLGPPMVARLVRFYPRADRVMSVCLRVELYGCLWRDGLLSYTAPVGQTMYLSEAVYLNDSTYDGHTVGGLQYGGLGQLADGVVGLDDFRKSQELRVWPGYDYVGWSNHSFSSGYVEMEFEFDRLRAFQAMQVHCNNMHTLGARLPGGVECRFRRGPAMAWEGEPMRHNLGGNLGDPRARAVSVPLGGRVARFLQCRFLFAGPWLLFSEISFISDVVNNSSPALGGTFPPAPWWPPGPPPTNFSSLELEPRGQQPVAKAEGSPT
T8 sequence (Q6UXX9 22-243 limits assumed): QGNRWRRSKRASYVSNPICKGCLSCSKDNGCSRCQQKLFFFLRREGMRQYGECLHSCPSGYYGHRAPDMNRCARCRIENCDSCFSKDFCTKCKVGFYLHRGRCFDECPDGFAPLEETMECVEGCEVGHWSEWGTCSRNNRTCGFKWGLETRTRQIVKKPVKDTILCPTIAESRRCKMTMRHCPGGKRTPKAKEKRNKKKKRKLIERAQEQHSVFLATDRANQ
T11 sequence (Q80W65 other isoform, or with tags, fused parts or gaps limits assumed): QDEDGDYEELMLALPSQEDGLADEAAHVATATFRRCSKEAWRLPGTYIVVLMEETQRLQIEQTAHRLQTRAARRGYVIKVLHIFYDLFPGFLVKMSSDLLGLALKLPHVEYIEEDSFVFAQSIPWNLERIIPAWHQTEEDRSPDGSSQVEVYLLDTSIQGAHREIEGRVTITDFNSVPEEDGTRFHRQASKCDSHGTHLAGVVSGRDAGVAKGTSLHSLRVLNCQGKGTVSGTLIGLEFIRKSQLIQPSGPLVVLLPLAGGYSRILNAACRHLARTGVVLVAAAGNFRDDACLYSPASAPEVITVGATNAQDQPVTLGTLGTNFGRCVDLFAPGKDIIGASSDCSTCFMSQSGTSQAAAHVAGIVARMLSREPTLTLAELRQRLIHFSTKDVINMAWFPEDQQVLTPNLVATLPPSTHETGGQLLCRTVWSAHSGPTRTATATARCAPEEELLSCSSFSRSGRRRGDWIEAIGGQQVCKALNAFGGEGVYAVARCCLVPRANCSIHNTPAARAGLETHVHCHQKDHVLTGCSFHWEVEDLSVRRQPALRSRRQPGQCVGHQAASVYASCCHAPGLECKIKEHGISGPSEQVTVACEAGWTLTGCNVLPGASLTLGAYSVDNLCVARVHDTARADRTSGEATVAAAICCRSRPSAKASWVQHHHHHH

B1: NVP-LGT209 (antibody, human IgG1)
heavy: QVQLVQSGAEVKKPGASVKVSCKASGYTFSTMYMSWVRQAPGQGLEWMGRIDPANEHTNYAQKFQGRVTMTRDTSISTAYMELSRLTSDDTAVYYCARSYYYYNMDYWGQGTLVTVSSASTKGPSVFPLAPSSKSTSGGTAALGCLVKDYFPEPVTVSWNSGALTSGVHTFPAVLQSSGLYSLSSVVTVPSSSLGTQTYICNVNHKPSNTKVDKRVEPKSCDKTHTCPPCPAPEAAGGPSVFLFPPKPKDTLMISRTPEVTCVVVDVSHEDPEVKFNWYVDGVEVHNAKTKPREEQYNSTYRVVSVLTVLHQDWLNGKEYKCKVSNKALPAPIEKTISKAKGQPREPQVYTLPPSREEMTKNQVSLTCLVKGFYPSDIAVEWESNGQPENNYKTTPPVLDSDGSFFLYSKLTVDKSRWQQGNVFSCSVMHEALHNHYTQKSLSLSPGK
light: QIVLTQSPATLSVSPGERATLSCRASQSVSYMHWYQQKPGQAPRLLIYGVFRRATGIPDRFSGSGSGTDFTLTIGRLEPEDFAVYYCLQWSSDPPTFGQGTKLEIKRTVAAPSVFIFPPSDEQLKSGTASVVCLLNNFYPREAKVQWKVDNALQSGNSQESVTEQDSKDSTYSLSSTLTLSKADYEKHKVYACEVTHQGLSSPVTKSFNRGEC
notes: Silent human IgG1 kappa made in 293 Freestyle cells; also called pJG04 (Vh) + pJG10 (Vk)
Consider B1, for which the Kd in experiment [1] was found to be 0.19 nM. Also, the binding result in experiment [2], in [3], in experiment [4], in experiment [5], in [6] and in [7] was “no binding (tested: 2 µg/mL)” throughout. The binding result in experiment [8] is reported as “no binding (tested: 2 µg/mL)”; in [9], “no binding (tested: 2 µg/mL)”; in [10], “no binding (tested: 2 µg/mL)”; in experiment [11], “no binding”.

B2: NVP-LGT210 (antibody, human IgG1)
heavy: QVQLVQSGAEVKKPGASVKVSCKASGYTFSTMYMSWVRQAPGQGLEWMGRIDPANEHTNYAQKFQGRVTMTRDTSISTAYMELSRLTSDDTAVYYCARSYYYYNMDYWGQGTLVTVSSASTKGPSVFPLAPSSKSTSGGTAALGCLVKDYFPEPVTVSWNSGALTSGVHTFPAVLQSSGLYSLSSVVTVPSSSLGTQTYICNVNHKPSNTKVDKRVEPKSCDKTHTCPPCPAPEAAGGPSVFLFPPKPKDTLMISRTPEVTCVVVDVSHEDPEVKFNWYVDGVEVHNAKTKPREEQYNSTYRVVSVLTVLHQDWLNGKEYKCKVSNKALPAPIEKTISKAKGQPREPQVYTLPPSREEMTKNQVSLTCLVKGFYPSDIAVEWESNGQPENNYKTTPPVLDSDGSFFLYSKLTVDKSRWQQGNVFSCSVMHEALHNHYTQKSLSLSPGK
light: B1 light with Q1E, L4M
notes: Silent human IgG1 kappa; also called pJG04 (Vh) + pJG01 (Vk)
Turning to B2, the Kd in [1] amounted to 0.15 nM. Moreover, the binding result in experiment [2], in [3], in [4], in experiment [5], in experiment [6] and in experiment [7] was “no binding (tested: 2 µg/mL)” throughout. For the same molecule, the binding result in experiment [8] is “no binding (tested: 2 µg/mL)”; in [9] it was “no binding (tested: 2 µg/mL)”; in experiment [10], “no binding (tested: 2 µg/mL)”; in [11] it was “no binding”.

B3: CDRH1-variant Fab SR079 (Fab, V domains shown)
VH: QVQLVQSGAEVKKPGASVKVSCKASGYTFSTMYMSWVRQAPGQGLEWMGRIDPANGHTNYAQKFQGRVTMTRDTSISTAYMELSRLTSDDTAVYYCARSYYYYAMDYWGQGTLVTVSS
VL: EIVMTQSPATLSVSPGERATLSCRASQSVSSSHVAWYQQKPGQAPRLLIYGVFRRATGIPDRFSGSGSGTDFTLTIGRLEPEDFAVYYCLQWSSDPPTFGQGTKLEIK
notes: also called SR079 (humaneered)
On to B3, for which the Kd in [12] worked out at 54.2 nM.
